In the supplement of paper PMC9170038:

Test system: MS2 coat protein
Experiment: apparent KD of MS2 coat protein; designed switch direction (-1 OFF switch, 1 ON switch): -1; higher = weaker reporter binding
Summary of the method: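 Stalled E. coli RNA polymerase transcribed designed RNA switches on Illumina chips, which were then titrated with SNAP-549-labelled MS2 coat protein, doubling from 0.7 or 1.5 nM to 3 µM. Steps lasted from 0.8–1.5 h at the lowest concentration to 10–20 min at the highest. The apparent KD is each design's median over clusters of curve-fitted normalised fluorescence.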

[1] = input ligand: microRNA oligo, concentration not stated
[2] = Eterna round: R95, input ligand: microRNA oligo, concentration not stated
[3] = Eterna round: R95, input ligand: FMN 200 uM
[4] = Eterna round: R95, input ligand: none

Sequence | apparent KD of MS2 coat protein (input ligand: FMN 200 uM) | apparent KD of MS2 coat protein (input ligand: none) | apparent KD of MS2 coat protein [1] | apparent KD of MS2 coat protein [2] | apparent KD of MS2 coat protein [3] | apparent KD of MS2 coat protein [4]
GGUGUACUAGUCAGGAUAUGAUUAAUACCAAAGAAUCAGAAGGGACAUGAGGAUCACCCAUGUAAAGAAGGAGA [BmEX4 A.23] (Eterna round: R97, puzzle: Brourd's mod of Exclusion 4) | 158 nM | 32.5 nM |  |  |  | 
AGUACUAUCACGAAAGUGAUAGUACAAUAAGCAAGUGAAACAUGAGGAUCACCCAUGUCCUCAUUUGCUCGUCUUAU [JL turnoff v2 74] (Eterna round: R96, puzzle: Sensor v2, turn-off variant 2) | 16.7 nM | 19.1 nM | 400 nM |  |  | 
CUCUUGGCAGGAUAUGCUCUUUUAGACAUGAGGAUCACCCAUGUGCUCAUUCCUUCUUUUGCAGAAGGGCCUUAAC [JR_E5_Sub048] (puzzle: Exclusion 5) |  |  |  | 63.8 nM |  | 
GAUUAUGCGAGCUUUAGGGACAUGAGGAUCACCCAUGUUCGUCUUAUUGAUCUGGAUGCGCUAACAUACCUAAAUCU [JMF 45] (puzzle: Sensor v3, turn-off variant 1) |  |  |  | 71.1 nM | 65 nM | 62.9 nM
GUGUAGUCAGGAUAUACAUAGGAAGAGAAGAGAAGAGAAGCACAUGAGGAUCACCCAUGUAGAAGGGACAGUGU [Excluse me!! 4 - Jieux - Exclusion 2] (Eterna round: R96, puzzle: Exclusion 2) |  |  | 40.1 nM |  |  | 
GGCACACAUGAGGAUCACCCAUGUGAGGAUAUGAGGCGAUCGUCGAAAGACGAUAGCCUCAGAAGGCACAUGCC [Eli x1 4.10] (Eterna round: R97, puzzle: Exclusion 1) | 42.9 nM | 16 nM |  |  |  | 
UUUUAACAUGAGGAUCACCCAUGUGAGGAUAUCGAAAUUUAUAUUAAUAUUUAUAAUUCGAGAAGGCACAUUUU [JMF 53] (puzzle: Exclusion 1) |  |  |  | 155 nM |  | 
AUGAGGUUAGGAUAUACAUGAGGAUCACCCAUGUUGAAAGGUUAGAUAGGAGAAGAUAGUAGAAGGAACAAAGA [JR_Exclu3_Sub053] (puzzle: Exclusion 3) |  |  |  | 37.2 nM | 31.8 nM | 43.1 nM
AUAAUACAUGAGGAUCACCCAUGUGAGGAUAUGAGCCUACAUUCACGCAGAGAGAAGGUCAGAAGGCACUUGGU [Eternabot (L2) Solution 65] (Eterna round: R97, puzzle: Exclusion 1) | 211 nM | 63.3 nM |  |  |  | 
GGUGUGCUAGGAUAUGCUUUGGGCUCGCUUUCCUUCGUUUUACUUGAGGAUCACCCAAGUAGAAGGAGCUUGCC [salish99_ex2_r4_037] (Eterna round: R97, puzzle: Exclusion 2) | 13.3 nM | 11.6 nM |  |  |  | 
AGCUGUGGCCGAGGAUAUCCAACUUCAAAUACCGACGUAUAGUCGGACAUGAGGAUCACCCAUGUGGAGAAGGCGGUCUCAGCA [Eli eng2 - 038] (Eterna round: R96, puzzle: Exclusion NG 2) | 24.2 nM | 15.6 nM | 12.5 nM |  |  | 
ACAUGACUGCUAGGAUAUAGAUGACAUGAGGAUCACCCAUGUUGUCCCAUGUUUAUGGAAACGGACUAGAAGGAGUAGUAUAUG [Ex NG2 #14] (Eterna round: R96, puzzle: Exclusion NG 2) | 30.7 nM | 27.9 nM | 23.4 nM |  |  | 
AUGCCACAUGAGGAUCACCCAUGUGAGGAUAUGGCCUGUUUGGCGUGUGCUGGCUCUGUCAGAAGGCGCGUGGG [salish99_ex1_r4_036] (Eterna round: R97, puzzle: Exclusion 1) | 33.9 nM | 25.7 nM |  |  |  | 
CCGAAAUCCUAGGAUAUGCUAGACGAAAGUCUAGCAGAAGGAGGAACAUGAGGAUCACCCAUGUGUCCUAUCGG [Mat - Exclusion 6 - Eli Mod - D30] (Eterna round: R97, puzzle: Exclusion 6) | 23.1 nM | 15.8 nM |  |  |  | 
GGAUGGCGAGGAUAUACAUGAGGAUCACCCAUGUGAGAGAAAUAAGUGAGGAAGAAAAGUAGAAGGCGCAGACG [Mat - Exclusion 3 - Mod of Salish D45] (puzzle: Exclusion 3) |  |  |  | 55.7 nM | 11.1 nM | 53.1 nM
GCAGGUUAAGUCAGGAUAUACCUAUGGAUACAUAGGUAGAAGGGACAUGAGGAUCACCCAUGUGCCUCACCUGC [Fiskers BMX 4 - 19] (puzzle: Brourd's mod of Exclusion 4) |  |  |  | 16.8 nM |  | 
GCACGGAGUGUAGGAUAUUAGUGCGAUUAGCACUGAGAAGGACAUGAGGAUCACCCAUGUUCCUCAAUAAUUAGCCUUCCGUGC [Eli exng1 - 038] (Eterna round: R96, puzzle: Exclusion NG 1) | 15.2 nM | 15.7 nM | 9.61 nM |  |  | 

Sequence | apparent KD of MS2 coat protein (input ligand: FMN 200 uM) | apparent KD of MS2 coat protein (input ligand: none) | apparent KD of MS2 coat protein [1] | apparent KD of MS2 coat protein [2] | apparent KD of MS2 coat protein [3] | apparent KD of MS2 coat protein [4]
UCGACGUCGUCAGGAUAUAGUCUUAAUGUCAUGCUUUUGUUCGUACAUGAGGAUCACCCAUGUGGCUAGAAGGGACUAAAGUUU [JR_ExcNG2_Sub016] (Eterna round: R96, puzzle: Exclusion NG 2) | 16.1 nM | 26.9 nM | 11.7 nM |  |  | 
GUGUUACAAGUGAGGAUAUCUGCUUUGGUAGAAGCGGAGAAGGCACAUGAGGAUCACCCAUGUCAGGAGUCCAU [Eternabot (L2) Solution 20] (Eterna round: R97, puzzle: Brourd's mod of Exclusion 4) | 393 nM | 59.3 nM |  |  |  | 
UUAACGUGGGCGUCCCACAGCAAGCUUUUUGCUCGUUUAACAUGAGGAUCACCCAUGUCGCUGCGGGAUCCCUAUGA [Abeisat] (puzzle: Sensor v3, turn-off variant 2) |  |  |  | 13.1 nM | 13.5 nM | 11.6 nM
AAGAUGUCAGGAUAUUAGUAGUAAAUGAAUAAAAUUAUUACUGAGAAGGGACAUGAGGAUCACCCAUGUGCCUU [Mat - Exclusion 4 - Eli Mod - D10] (Eterna round: R97, puzzle: Exclusion 4) | 17.5 nM | 16.6 nM |  |  |  | 
ACUUACUGAGGAUAUACAUAGAUUUACAUGAGGAUCACCCAUGUUCCUCUAAGUAUAUAUGUAGAAGGCAGAAGGU [Mat - Exclusion 5 - JL Mod - D42] (Eterna round: R97, puzzle: Exclusion 5) | 177 nM | 214 nM |  |  |  | 
GUCAGCUCGUCAGGAUAUAUAUACAUGAGGAUCACCCAUGUAAGAUCAGGCUUCGGCCAAUGUAUAUAGAAGGGACGAGCUGAC [ENG2/11-B1] (Eterna round: R96, puzzle: Exclusion NG 2) | 500 nM | 716 nM | 691 nM |  |  | 
AAACCCUGAGGAUAUACAUAACAACAAACCCUCACGUGCCAACAUGAGGAUCACCCAUGUAGAAGGCAGGCCAA [Mod R3 Insanara 6 - Jieux - Exclusion 2] (Eterna round: R97, puzzle: Exclusion 2) | 64.3 nM | 18.7 nM |  |  |  | 
CAUUAUUAUCGAGGAUAUCGUAUUGAGAUACUAUGAGAAGGCGGGAUAAACAUGAGGAUCACCCAUGUGAGCCUGAUGCUUGUG [Ex NG1 #37] (Eterna round: R96, puzzle: Exclusion NG 1) | 17.4 nM | 19.3 nM | 14.3 nM |  |  | 
UAAAUGUGAGGAUAUCAGGUGUGCUAGCAUACUGGUACAUCUGAGAAGGCACAUGAGGAUCACCCAUGUUCCUU [Mat - Exclusion 4 - Mod of JL - D52] (puzzle: Exclusion 4) |  |  |  | 16.7 nM |  | 
UGCAGACGAGGAUAUAAAUUUGAUAACAUGAGGAUCACCCAUGUGAUCGAUAGAUCAAAUUUAGAAGGCGUCUGCA [E5/7-A2] (Eterna round: R97, puzzle: Exclusion 5) | 369 nM | 717 nM |  |  |  | 
AAUCCUAGAGGAUAUACAUGUGAACUACUGUACAUCCCUGUACAUGAGGAUCACCCAUGUAGAAGGCUGACGGA [Eternabot (L2) Solution 97] (Eterna round: R97, puzzle: Exclusion 2) | 244 nM | 197 nM |  |  |  | 
CCUAAACAUGAGGAUCACCCAUGUGAGGAUAUGAUGCAGCAGUGGUCUACGCUGUGCAUCAGAAGGUACAUGGU (puzzle: Exclusion 1) |  |  |  | 73.4 nM |  | 
AAUAUGUUAGGAUAUCUCAGCUGCCCGUAAACAGGCUAGCGAGAGAAGGGACAUGAGGAUCACCCAUGUCAUCC [Eternabot (Original) Solution 2] (Eterna round: R97, puzzle: Exclusion 4) | 17.1 nM | 15.6 nM |  |  |  | 
ACAUGUUAUGUAGGAUAUUGGACACAUGAGGAUCACCCAUGUAACCGGAGGCUUUACUAUGAGUUCGAGAAGGGUAUGAACAUG [Ex NG2 #67] (Eterna round: R96, puzzle: Exclusion NG 2) | 77.5 nM | 49.1 nM | 44.3 nM |  |  | 
CUUAGCCUAAAAUCACGCAAGCUUUUCGCUUGUCUUAAGACAUGAGGAUCACCCAUGUCCGGGCUGAACUUAUGGAA [Esenma] (puzzle: Sensor v3, turn-off variant 2) |  |  |  | 19.2 nM | 18.3 nM | 18.5 nM
AACAGUACAGGAUAUACAUGAGGAUCACCCAUGUGAGAAACCACUGGCGUACCAGAAAGUAGAAGGGUACUGGA [Moding Maslow Revisited (73) 29] (Eterna round: R96, puzzle: Exclusion 3) | 307 nM | 146 nM | 160 nM |  |  | 
UGUGCGUAUGUGAGGAUAUGCUGGUCCUUGGAUCGGCAGAAGGCACAUGAGGAUCACCCAUGUGGUGUCGUUCC [salish99_Bmod_ex4_095] (puzzle: Brourd's mod of Exclusion 4) |  |  |  | 102 nM |  | 
